Source: the Human Domainome abundance scans (Beltran et al. 2025)

B1: Homeobox protein cut-like 1, residues 548 to 629; numbered along this chain, P39880 (parent)
chain: GEEMDTAEIARQVKEQLIKHNIGQRIFGHYVLGLSQGSVSEILARPKPWNKLTVRGKEPFHKMKQFLSDEQNILALRSIQGR

Variants of: B1
Assay: abundance fitness (aPCA) (normalised: wild type 0, dead -1); higher = more abundant; growth selection in yeast, the domain comes from the species named
Conditions: Homo sapiens

Abundance fitness: each site, then its substitutions
T53: H -0.432, Q -0.369, G -0.032, Y -0.821, M -0.45, K -0.686, R -0.767, I -0.521, N -0.077, D 0.116, A -0.341, S 0.049, P -0.254, F -0.55, W -0.566, V -0.671, E -0.251
V54: S -0.033, Q 0.064, I -0.001, L 0.028, T 0.03, N 0.08, D 0.052, K 0.058, C -0.063, P 0.036, G -0.04, W -0.173, E 0.136, F -0.094, Y -0.033, R -0.028, A 0.066, M 0.119
K57: F -0.742, E -0.476, M -0.152, L -0.288, I -0.284, V -0.455, R 0.013, G -0.525, Y -0.528, C -0.393, W -0.526, H -0.426, P -0.663, Q 0.057, S -0.334, N -0.601, T -0.408, A -0.2
H61: L 0.071, S -0.137, F 0.069, I 0.075, Y 0.067, V 0.009, R 0.014, G -0.342, N -0.11, A -0.07, K 0.013, W -0.03, C -0.134, E 0.021, Q 0.04
R55: L -0.04, P -0.159, A 0.075, K 0.066, Q 0.067, Y -0.096, C -0.051, F -0.041, E 0.135, T 0.007, G -0.011, W -0.095, V -0.06, M -0.028, I -0.148, D 0.027, S 0.004, N -0.142, H 0.077
G56: D 0.036, L -0.098, R -0.711, E 0.085, I -0.282, S -0.254, C -0.279, F -0.224, T -0.333, M -0.143, P -0.697, Q 0.077, Y -0.313, V -0.343, K -0.595, W -0.265, N -0.22, H -0.352
F60: I -0.306, P -0.897, V -0.911, C -0.762, E -0.799, M -0.536, R -1.01, Y 0.019, S -0.869, T -0.835, G -0.952, W 0.035, A -0.944, Q -0.761, D -0.803
K51: M -0.011, L 0.011, F -0.098, D 0.054, Y -0.195, S 0.006, T 0.011, E 0.063, P -0.912, W -0.338, Q 0.122, V 0.053, I -0.008, N 0.012, R -0.047, H -0.075, G -0.198
M63: H -1.13, Y -0.94, N -1.16, W -1.02, D -0.949, E -0.872, G -1.04, R -1, A -0.677, P -0.797, L -0.423, I -0.31, T -0.777, V -0.886, F -0.753, K -0.992
P48: Q -0.247, N -0.446, G -0.539, C -0.268, W -0.325, M -0.27, E -0.126, F -0.513, A -0.119, S -0.168, R -0.475, D -0.267, I -0.438, Y -0.78, V -0.374, H -0.16, K -0.452
P46: L -0.356, Q -0.482, I -0.26, E -0.779, Y -0.594, A -0.346, F -0.725, W -0.356, G -0.77, H -0.746, D -0.854, N -0.685, S -0.652, V -0.37, K -0.938, M -0.459, R -0.925
E58: M -0.132, H -0.618, A -0.168, W -0.227, C -0.441, R -0.273, K -0.23, Q -0.047, D -0.105, G -0.35, F -0.416, I -0.234, Y -0.166, P -0.819, N -0.27, T -0.255, S -0.252, V -0.062, L -0.121
P59: Y 0.025, W 0.077, K -0.034, D 0.047, C 0.1, S 0.076, R 0.023, Q 0.078, N 0.113, L 0.133, G -0.024, I 0.099, E 0.101, A 0.091, M 0.078, H 0.025, T 0.088, F 0.052
K62: I -0.16, T -0.305, P -0.989, F -0.603, C -0.413, G -0.729, S -0.443, W -0.749, A -0.201, N -0.532, Y -0.522, R -0.126, M -0.231, E -0.506, V -0.307, L -0.12
K47: L 0.028, A -0.116, Q 0.03, G -0.288, V -0.015, R -0.072, F -0.338, Y -0.432, S -0.126, E -0.037, M -0.06, W -0.329, H -0.276, D -0.08, N -0.339, I -0.086, T -0.019
W49: L -0.506, S -0.477, R -0.574, V -0.529, T -0.509, E -0.273, A -0.202
K64: L -0.064, R -0.049, T -0.287, A -0.028, M -0.061, S -0.154, P -0.917, G -0.43, H -0.216, W -0.24, Q 0.033, D -0.489, N -0.225, C -0.273, E -0.167, F -0.15, V -0.023, Y -0.112
R45: L -0.274, F 0.008, V -0.228, M -0.049, K -0.006, W -0.201, N -0.002, I -0.361, P -0.797, H 0.103, G -0.296, S 0.041, T -0.003, Q -0.021, Y -0.085
L52: D -1.17, V -0.879, E -1.02, R -1.1, T -0.99, S -0.97, H -1.02, A -1.04, I -0.538, K -1.13, Y -0.602, Q -0.825, P -0.97, F -0.915, N -1.1, C -0.484
N50: M -0.23, P -0.003, K -0.093, H -0.074, E -0.071, F -0.265, Q -0.057, C 0.064, Y -0.165, W -0.151, L -0.424, V -0.309, A -0.062, R -0.04, D -0.103, S 0.073, G -0.129, T -0.16
Q65: A -0.02, C -0.172, E 0.053
